Assay results taken from publication PMC6081480, “Monitoring the action of redox-directed cancer therapeutics using a human peroxiredoxin-2-based probe” (Nature Communications, 2018).

Legend:
[1] = target: human Prx2-based FRET probe (Clover-Prx2-mRuby2) (human); experiment: non-reducing SDS-PAGE with immunoblot; HeLa cells with or without the probe, treated with H2O2 (also auranofin or piperlongumine); free thiols blocked with 100 mM MMTS; 1% Triton X-100 lysate; SDS-PAGE without beta-mercaptoethanol; blot for Prx2 or GFP; disulfide-linked dimers
[2] = target: the molecule itself; experiment: as above

human Prx2-based FRET probe (Clover-Prx2-mRuby2)
stoichiometry N [1]: 2

B1: human peroxiredoxin-2 (endogenous) (natural protein, human (endogenous in HeLa), UniProt P32119 1-198, looked up)
chain: MASGNARIGKPAPDFKATAVVDGAFKEVKLSDYKGKYVVLFFYPLDFTFVCPTEIIAFSNRAEDFRKLGCEVLGVSVDSQFTHLAWINTPRKEGGLGPLNIPLLADVTRRLSEDYGVLKTDEGIAYRGLFIIDGKGVLRQITVNDLPVGRSVDEALRLVQAFQYTDEHGEVCPAGWKPGSDTIKPNVDDSKEYFSKHN
notes: peroxiredoxin-2 (Prx2), human, endogenous in HeLa cells; monomer band at 21 kDa; the dimer seen on non-reducing SDS-PAGE is linked by a disulfide between the catalytic and the resolving cysteine of two monomers; also called Prx2; endogenous Prx2; source: endogenous, HeLa lysate
stoichiometry N [2]: 2
